Details: phosphorylation at S183

Substance: p27/Kip1: S183A
- other: no change

— publication PMC3981467
